{"source": "paper PMC6679477", "about": "“Optimization of a nicotine degrading enzyme for potential use in treatment of nicotine addiction” (BMC Biotechnology, 2019)", "molecules": {"B1": {"name": "wt NicA2 (Pseudomonas putida S16) (protein)", "chain": "MSDKTKTNEGFSRRSFIGSAAVVTAGVAGLGAIDAASATQKTNRASTVKGGFDYDVVVVGGGFAGATAARECGLQGYRTLLLEARSRLGGRTFTSRFAGQEIEFGGAWVHWLQPHVWAEMQRYGLGVVEDPLTNLDKTLIMYNDGSVESISPDEFGKNIRIAFEKLCHDAWEVFPRPHEPMFTERARELDKSSVLDRIKTLGLSRLQQAQINSYMALYAGETTDKFGLPGVLKLFACGGWNYDAFMDTETHYRIQGGTIGLINAMLTDSGAEVRMSVPVTAVEQVNGGVKIKTDDDEIITAGVVVMTVPLNTYKHIGFTPALSKGKQRFIKEGQLSKGAKLYVHVKQNLGRVFAFADEQQPLNWVQTHDYSDELGTILSITIARKETIDVNDRDAVTREVQKMFPGVEVLGTAAYDWTADPFSLGAWAAYGVGQLSRLKDLQAAEGRILFAGAETSNGWHANIDGAVESGLRAGREVKQLLS", "notes": "full-length, C-terminal His6 tag kept, expressed in E. coli, purified, 52 kDa on SDS-PAGE; FAD enzyme"}}, "data": [{"substrate": "CN1CCC[C@H]1c1cccnc1", "experiment": "residual nicotine by GC; progress curves fitted in KinTek, Km derived from kcat/Km and kcat", "assay_type": "biochemical, Pseudomonas putida", "conditions": "rat serum, 37 °C, 250 nM (40 ng/mL) nicotine, O2 as oxidant", "from_the_text": "(§1) residual nicotine by GC; progress curves fitted in KinTek, Km derived from kcat/Km and kcat on wt NicA2", "units": {"Km": "µM", "kcat": "s⁻¹", "kcat/Km": "M⁻¹ s⁻¹"}, "values": [{"molecule": "B1", "Km": 0.24, "kcat": 0.015, "kcat/Km": 64000}]}, {"tested_on": "T1, CN1CCC[C@H]1c1cccnc1", "T1 construct": "full-length, C-terminal His6 tag kept, expressed in E. coli, purified, 52 kDa on SDS-PAGE; FAD enzyme", "experiment": "residual nicotine by GC; progress curves fitted in KinTek, Km derived from kcat/Km and kcat", "assay_type": "biochemical, Pseudomonas putida", "conditions": "rat serum, 37 °C, 250 nM (40 ng/mL) nicotine, O2 as oxidant", "from_the_text": "as §1", "units": {"Km": "µM", "kcat": "s⁻¹", "kcat/Km": "M⁻¹ s⁻¹"}, "values": [{"molecule": "wt NicA2 (Pseudomonas putida S16; G106A)", "Km": 0.28, "kcat": 0.031, "kcat/Km": 110000}, {"molecule": "wt NicA2 (Pseudomonas putida S16; F104T)", "Km": 0.33, "kcat": 0.055, "kcat/Km": 170000}, {"molecule": "wt NicA2 (Pseudomonas putida S16; A107R)", "Km": 0.83, "kcat": 0.159, "kcat/Km": 190000}, {"molecule": "wt NicA2 (Pseudomonas putida S16; A107T)", "Km": 0.285, "kcat": 0.05, "kcat/Km": 180000}, {"molecule": "wt NicA2 (Pseudomonas putida S16; F355H)", "Km": 0.22, "kcat": 0.029, "kcat/Km": 130000}, {"molecule": "wt NicA2 (Pseudomonas putida S16; A107G)", "Km": 0.335, "kcat": 0.053, "kcat/Km": 160000}, {"molecule": "wt NicA2 (Pseudomonas putida S16; F104I)", "Km": 0.24, "kcat": 0.039, "kcat/Km": 160000}, {"molecule": "wt NicA2 (Pseudomonas putida S16; A426C)", "Km": 0.23, "kcat": 0.03, "kcat/Km": 130000}, {"molecule": "wt NicA2 (Pseudomonas putida S16; F104R)", "Km": 0.27, "kcat": 0.041, "kcat/Km": 150000}, {"molecule": "wt NicA2 (Pseudomonas putida S16; F104S)", "Km": 0.25, "kcat": 0.031, "kcat/Km": 130000}]}]}
